The record followed here is patent US20100003244A1 (TRIGEN, published 2010).

The target of test [1] is collagen (type I bovine; BD Bioscience) (bovine) (UniProt P02453). The test can be described thus: ELISA, collagen type 1 coated plates, Lineweaver-Burk plot.
Test [2] addresses mouse GPVI (mouse) (UniProt P0C191). The test can be described thus: cell-based or functional assay.
In test [3] the target is T1, GPVI peptide 11 (human).
T1 peptide: Ac-QSGPLPKPSLQAL
Description: PepSpot control incubation.

The target of test [4] is T2, GPVI peptide 33 (human).
T2 sequence (peptide, N-terminus acetylated): SRYQDQAVLFIPA
The test can be described thus: PepSpot control incubation.

In test [5] the target is T3, GPVI peptide 118 (human).
T3 sequence (peptide, N-terminus acetylated): TNKVFTTETSRSI
Description: PepSpot control incubation.

For test [6], the target named is T4, GPVI peptide 32 (human).
T4 sequence (peptide, N-terminus acetylated): SSSRYQDQAVLFI
The test can be described thus: PepSpot control incubation.

Test [7] has as its target T5, GPVI peptide 117 (human).
T5 sequence (peptide, N-terminus acetylated): SFTNKVFTTETSR
The test can be described thus: PepSpot control incubation.

Test [8] has as its target T6, GPVI peptide 131 (human).
T6 sequence (peptide, N-terminus acetylated): ARQYYTKGNGGRE
Description: PepSpot control incubation.

The target in test [9] is T7, GPVI peptide 37 (human).
T7 peptide: Ac-LFIPAMKRSLAGR
The test can be described thus: PepSpot control incubation.

In test [10] the target is T8, GPVI peptide 53 (human).
T8 sequence (peptide, N-terminus acetylated): LVATGVFAKPSLS
Description: PepSpot control incubation.

For test [11], the target named is T9, GPVI peptide 7 (human).
T9 sequence (peptide, N-terminus acetylated): LCLGRVPAQSGPL
The test can be described thus: PepSpot control incubation.

The target in test [12] is T10, GPVI peptide 54 (human).
T10 peptide: Ac-ATGVFAKPSLSAQ
Description: PepSpot control incubation.

Test [13] concerns the target T11, GPVI peptide 130 (human).
T11 sequence (peptide, N-terminus acetylated): GPARQYYTKGNGG
Description: PepSpot control incubation.

The target of test [14] is Fc-GPVI-nt (human). Description: competition ELISA, immobilized collagen.
Chain of Fc-GPVI-nt (human) (chain, as listed by the source limits assumed): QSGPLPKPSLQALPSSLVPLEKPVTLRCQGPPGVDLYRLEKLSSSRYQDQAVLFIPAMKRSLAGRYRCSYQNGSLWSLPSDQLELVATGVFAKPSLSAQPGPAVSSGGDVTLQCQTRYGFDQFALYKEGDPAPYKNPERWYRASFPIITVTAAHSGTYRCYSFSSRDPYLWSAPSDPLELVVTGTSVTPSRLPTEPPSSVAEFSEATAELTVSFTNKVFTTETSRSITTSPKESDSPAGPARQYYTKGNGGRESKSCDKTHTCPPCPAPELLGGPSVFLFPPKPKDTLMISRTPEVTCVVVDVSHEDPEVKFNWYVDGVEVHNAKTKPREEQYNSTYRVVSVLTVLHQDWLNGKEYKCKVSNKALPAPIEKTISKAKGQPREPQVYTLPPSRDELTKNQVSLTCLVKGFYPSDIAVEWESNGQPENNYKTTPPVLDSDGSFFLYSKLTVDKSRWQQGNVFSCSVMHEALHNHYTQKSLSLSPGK
For test [15], the target named is T2, GPVI peptide 33 (human). The test can be described thus: PepSpot array.
The target of test [16] is T3, GPVI peptide 118 (human). Description: PepSpot array.
Test [17] has as its target T4, GPVI peptide 32 (human). Description: PepSpot array.
The target of test [18] is T5, GPVI peptide 117 (human). Description: PepSpot array.
Test [19] has as its target T6, GPVI peptide 131 (human). Description: PepSpot array.
In test [20] the target is T8, GPVI peptide 53 (human). The test can be described thus: PepSpot array.
The target in test [21] is T9, GPVI peptide 7 (human). Description: PepSpot array.
In test [22] the target is T11, GPVI peptide 130 (human). The test can be described thus: PepSpot array.
Test [23] deals with T1, GPVI peptide 11. Description: PepSpot array. The procedure: (§1) The peptides were synthesized on a cellulose membrane in a stepwise manner resulting in a defined arrangement (peptide array) and are covalently bound to the cellulose membrane. Binding assays were performed directly on the peptide array. In general an antigen peptide array is incubated with blocking buffer for several hours to reduce non-specific binding of proteins or antibodies. It follows the incubation with a primary (antigen peptide-binding) antibody in blocking buffer and an incubation with a horseradish peroxidase (HRP)-labelled secondary antibody, which binds selectively the primary antibody. Alternatively a HRP-labelled primary antibody in blocking buffer can be used.
(§2) A short T(Tween)-TBS-buffer washing directly after the incubation of the antigen peptide array with the secondary protein or antibody or the HRP-labelled primary antibody followed by the first chemiluminescence experiment is made to get an first overview which antigen peptides do bind the primary antibody. Several buffer washing steps follow (T-TBS- and TBS-buffer) to reduce false positive binding (unspecific antibody binding to the cellulose membrane itself). After these washing steps the final chemiluminescence analysis is performed. The data were analysed with an imaging system showing the signal intensity (Light units, LU) as single measurements for each peptide. In order to evaluate non-specific binding of secondary antibodies, incubations using the secondary antibody have to be performed in the absence of the primary antibody as control incubation.

For test [24], the target named is T7, GPVI peptide 37. The test can be described thus: PepSpot array. The procedure:
as §1, §2

Test [25] deals with T10, GPVI peptide 54. The test can be described thus: PepSpot array. The procedure:
as §1, §2

Values joined by “and” are separate entries in the source; they are usually repeats but may differ in a detail not shown here. Identical values can stand only once. Ends that are not written are not given here.

Chain of mouse GPVI (mouse) (P0C191 22-313): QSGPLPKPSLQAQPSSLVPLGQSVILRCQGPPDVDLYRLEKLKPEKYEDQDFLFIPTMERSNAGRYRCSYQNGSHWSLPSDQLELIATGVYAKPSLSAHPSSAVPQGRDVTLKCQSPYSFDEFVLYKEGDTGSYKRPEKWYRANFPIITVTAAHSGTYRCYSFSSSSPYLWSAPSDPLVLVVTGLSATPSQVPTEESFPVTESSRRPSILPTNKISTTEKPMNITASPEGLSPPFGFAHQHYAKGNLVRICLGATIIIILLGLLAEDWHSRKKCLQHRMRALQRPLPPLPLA
Chain of collagen (type I bovine; BD Bioscience) (bovine) (P02453 162-1217, chain 1 of 2): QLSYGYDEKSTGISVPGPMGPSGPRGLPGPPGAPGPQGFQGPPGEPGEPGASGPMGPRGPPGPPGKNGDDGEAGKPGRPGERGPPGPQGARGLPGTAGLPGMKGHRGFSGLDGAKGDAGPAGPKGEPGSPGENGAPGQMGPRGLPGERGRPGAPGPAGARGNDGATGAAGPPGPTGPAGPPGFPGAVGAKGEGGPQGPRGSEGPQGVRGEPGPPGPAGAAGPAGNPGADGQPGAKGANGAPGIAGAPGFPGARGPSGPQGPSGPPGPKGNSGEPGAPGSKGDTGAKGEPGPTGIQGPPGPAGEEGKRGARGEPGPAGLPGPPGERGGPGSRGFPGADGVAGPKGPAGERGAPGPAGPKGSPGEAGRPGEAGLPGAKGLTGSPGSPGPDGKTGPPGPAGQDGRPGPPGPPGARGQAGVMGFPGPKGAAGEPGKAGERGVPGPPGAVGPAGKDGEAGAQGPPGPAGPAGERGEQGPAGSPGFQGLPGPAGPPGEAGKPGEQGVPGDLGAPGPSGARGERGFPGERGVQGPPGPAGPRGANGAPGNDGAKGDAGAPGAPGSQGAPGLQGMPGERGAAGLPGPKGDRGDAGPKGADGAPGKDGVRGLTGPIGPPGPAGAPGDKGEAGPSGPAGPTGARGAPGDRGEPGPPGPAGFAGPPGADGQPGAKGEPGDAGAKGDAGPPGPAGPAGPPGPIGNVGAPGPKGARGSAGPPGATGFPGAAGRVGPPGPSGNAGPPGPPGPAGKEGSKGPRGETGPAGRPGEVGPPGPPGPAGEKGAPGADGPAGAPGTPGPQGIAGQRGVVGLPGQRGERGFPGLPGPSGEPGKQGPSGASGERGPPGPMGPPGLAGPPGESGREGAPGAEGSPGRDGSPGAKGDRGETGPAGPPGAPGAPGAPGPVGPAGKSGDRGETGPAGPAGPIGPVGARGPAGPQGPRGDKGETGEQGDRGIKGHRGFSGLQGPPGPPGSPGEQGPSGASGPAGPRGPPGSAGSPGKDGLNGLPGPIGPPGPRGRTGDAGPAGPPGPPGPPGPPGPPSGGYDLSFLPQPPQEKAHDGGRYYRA
Chain of collagen (type I bovine; BD Bioscience) (bovine) (P02465 80-1117, chain 2 of 2, further chain): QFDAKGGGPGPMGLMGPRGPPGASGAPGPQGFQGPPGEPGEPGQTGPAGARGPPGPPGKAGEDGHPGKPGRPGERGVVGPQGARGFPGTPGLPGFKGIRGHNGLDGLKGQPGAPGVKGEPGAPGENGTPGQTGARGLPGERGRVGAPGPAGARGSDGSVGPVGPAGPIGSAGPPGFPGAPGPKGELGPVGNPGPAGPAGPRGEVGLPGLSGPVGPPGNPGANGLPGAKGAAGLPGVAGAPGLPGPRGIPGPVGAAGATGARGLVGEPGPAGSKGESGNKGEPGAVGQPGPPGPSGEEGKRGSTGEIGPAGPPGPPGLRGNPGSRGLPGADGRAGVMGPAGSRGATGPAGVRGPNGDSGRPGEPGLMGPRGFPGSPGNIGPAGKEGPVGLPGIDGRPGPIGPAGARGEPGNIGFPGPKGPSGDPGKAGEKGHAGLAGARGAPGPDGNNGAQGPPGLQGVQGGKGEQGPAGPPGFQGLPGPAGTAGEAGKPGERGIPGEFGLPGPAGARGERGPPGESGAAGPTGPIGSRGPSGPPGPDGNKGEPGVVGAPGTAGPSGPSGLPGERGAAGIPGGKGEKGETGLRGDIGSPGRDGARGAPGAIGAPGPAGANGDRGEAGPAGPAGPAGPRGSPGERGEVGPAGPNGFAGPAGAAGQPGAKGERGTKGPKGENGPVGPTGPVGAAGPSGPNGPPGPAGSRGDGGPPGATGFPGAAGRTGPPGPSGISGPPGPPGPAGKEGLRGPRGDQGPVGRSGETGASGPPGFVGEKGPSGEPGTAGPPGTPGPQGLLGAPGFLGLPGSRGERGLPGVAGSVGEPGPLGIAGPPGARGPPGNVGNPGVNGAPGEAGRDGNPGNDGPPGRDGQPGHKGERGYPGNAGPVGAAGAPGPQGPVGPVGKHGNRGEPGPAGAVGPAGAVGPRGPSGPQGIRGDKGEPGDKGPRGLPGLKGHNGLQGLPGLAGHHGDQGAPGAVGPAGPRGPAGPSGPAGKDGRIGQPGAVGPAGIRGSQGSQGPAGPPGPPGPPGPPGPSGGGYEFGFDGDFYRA

For the molecule “monomeric GPVI fusion protein (Fc fusion)”, the fold lower affinity compared to dimeric Fc-GPVI-nt in test [1] was 10 fold.

For JAQ1 (antibody), in test [2], the ATP release, mouse platelet-rich plasma was determined as 1.09 nM ATP; the platelet aggregation after stimulation with 2 µg collagen/ml, mouse platelet-rich plasma is 2% and 1.5%.

As for anti-rat-HRP (Sigma A9037) (antibody), the LU (Light Units) was found to be 212 LU in test [3]; 204 LU in test [4]; 354 LU in [5]; 240 LU in test [6]; 377 LU in test [7]; 389 LU in test [8]. Also, the LU (Light Units) worked out at 280 LU in test [9]; 240 LU in [10]; 239 LU in test [11]; 190 LU in [12]; 343 LU in [13].

In test [14], soluble collagen (ligand) returned a concentration required to reduce Fc-GPVI-nt binding to immobilized collagen by more than 50% of 100 µg/mL.

B1: monoclonal antibody hGP 5C4 (antibody, V domains shown)
VH: EVKLQESGGGLVQPGRSLKLSCTASGFTFSDYFMSWVRQAPTRGLEWVASISSGGASAYWRDSVKGRFTISRDNAKSALYLQMDSLRSEDTATYFCARGELDFDYWGQGVMVAVSS
VL: ADPNSTLLSASVGDRVTLNCTASQNVYKNLAWYQQKLGEAPRLLLYSANSQTGIPSRFSGSGSGPDFTLTISSLQPEDVASYFCQQYYSGNTFGAGTKLELKR
notes: Monoclonal IgG from Lou/C rats immunized with Fc-GPVI-nt; also called ab 5C4; anti-GPVI mAb 5C4
For B1, the LU (Light Units) in [15] is 259 LU; in test [16], 336 LU; in [17] it was 319 LU; in [18], 472 LU; in test [19] it was 289 LU; in test [20] it was 359 LU. Besides, the LU (Light Units) amounted to 292 LU in test [21] and 255 LU in [22]. The results for the “signal to noise ratio” value in test [23], in test [24] and in [25] were about 20, about 4 and about 4, respectively.
